Measured values reported in patent publication US20230414780A1 (VECT HORUS, published 2023).
Where a chain is given by its changes, count along the chain named.

B1: C5^V16h20 (VHH)
VHH: EVQLVESGGGVVQPGGSLRLSCAASGTDFSINFIRWYRQAPGKGLEFVAGFTATGNTNYADSVKGRFTISRDNAKNAVYLQMNSLRPEDTAVYYCYILDKWGQGTQVTVSS
B2: C5^V30 (VHH)
VHH: EVQLVESGGGVVQPGGSLKLSCVASGTDKSINFIRWYRQAPGKQREFVAGFTATGNTNYADSMKGRFTISRDNTKNAVYLQIDSLKPEDTAVYYCYMLDKWGQGTQVTVSS
B3: C5^V31 (VHH)
VHH: B2 VHH with K29R
B4: C5^V32 (VHH)
VHH: B2 VHH with K29F, R38S, F67L, D99G
B5: VHH A8 (C5^V8) (VHH)
VHH: B2 VHH with K29F, D99A
B6: VHH A18 (C5^V18) (VHH)
VHH: B2 VHH with K29F, L98V
B7: VHH D (H3) (VHH)
VHH: EVQLVESGGGEVQPGGSLKLSCVASGTDFSINFVRWYRQRPGKQREWVAGFTANGDTNYPDSMKGRFTISRDNAKNTVYLQINSLKSEDTAVYYCYMLDNWGQGTQVTVSS
B8: B8^V1 (VHH)
VHH: EVQLVESGGGVVQPGGSLRLSCAADGEIFSINFMRWYRQAPGKQREWVAGFTRDGSTNYPDSAKGRFTISRDNAKNTVYLQIDSLKPEDTAVYYCYMLDTWGQGTQVTVSS
B9: B8^V12 (VHH)
VHH: B8 VHH with D25S, S30Y
B10: B8^V16 (VHH)
VHH: B8 VHH with D25S, W47Q
B11: B8^V27 (VHH)
VHH: B8 VHH with D25S, N58V
B12: B8^V29 (VHH)
VHH: B8 VHH with D25S, L98A
B13: B8^V31 (VHH)
VHH: B8 VHH with D25S, F29K
B14: B8^V32 (VHH)
VHH: B8 VHH with D25S, F29R
B15: B8^V33 (VHH)
VHH: B8 VHH with D25S, D99K
B16: B8^V34 (VHH)
VHH: B8 VHH with D25S, F29R, S62I
B17: B8^V36 (VHH)
VHH: B8 VHH with D25S, F33V
B18: C5^h25 (VHH)
VHH: B1 VHH with Y37V, A77T, V78L, M82I, N83D, I97M

What follows are binders tested against T1, human TfR ectodomain fused to a mouse IgG1 Fc fragment (human, UniProt P02786 89-760) (assay: SPR, kinetic).
T1 construct: extracellular domain; ectodomain fused to the N-terminal end of the Fc, made in-house; not shown: mouse IgG1 Fc fragment
T1 sequence (P02786 89-760): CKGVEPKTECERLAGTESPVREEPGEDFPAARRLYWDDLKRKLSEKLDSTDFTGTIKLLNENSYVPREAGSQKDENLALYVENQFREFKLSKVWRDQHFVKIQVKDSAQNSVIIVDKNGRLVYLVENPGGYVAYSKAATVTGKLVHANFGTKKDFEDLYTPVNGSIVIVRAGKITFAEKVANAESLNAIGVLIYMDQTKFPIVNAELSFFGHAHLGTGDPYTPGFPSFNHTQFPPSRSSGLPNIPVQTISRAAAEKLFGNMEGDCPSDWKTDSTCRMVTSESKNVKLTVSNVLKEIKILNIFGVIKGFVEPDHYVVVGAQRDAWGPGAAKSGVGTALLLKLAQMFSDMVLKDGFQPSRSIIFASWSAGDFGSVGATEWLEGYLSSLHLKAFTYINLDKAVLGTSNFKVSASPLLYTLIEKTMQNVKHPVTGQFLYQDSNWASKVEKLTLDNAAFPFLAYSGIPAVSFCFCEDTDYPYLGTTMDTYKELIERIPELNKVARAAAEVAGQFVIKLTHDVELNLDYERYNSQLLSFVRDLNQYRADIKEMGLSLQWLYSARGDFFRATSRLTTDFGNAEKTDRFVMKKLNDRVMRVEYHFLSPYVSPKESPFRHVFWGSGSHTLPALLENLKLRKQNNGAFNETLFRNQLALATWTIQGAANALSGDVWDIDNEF
Experimental: (§1) Binding properties of some VHHs were also evaluated using Surface Plasmon Resonance (SPR) experiments. The human, mouse and rhesus monkey TfR (having respectively GeneBank number NM_003234.2, NM_011638, NC_041755.1) ectodomains were fused to the N-terminal end of a mouse IgG1 Fc fragment and the recombinant proteins were produced and purified in-house. Interaction of VHHs with the receptors was tested using a Biacore T200 (GE Healthcare). Receptors were immobilized on an HC 1500M or a CM5 sensor chip (Xantec) either directly or on an anti-mouse IgG previously immobilized. VHHs were injected over flowcell by using the single-cycle kinetic or the multiple-cycle kinetic methods.
B1 gave a Kd of 112 nM, a koff of 0.0399 s⁻¹ and a kon of 360000 M⁻¹ s⁻¹.
In the case of B2, the Kd is reported as 94 nM, the koff is reported as 0.03 s⁻¹ and the kon is reported as 319000 M⁻¹ s⁻¹.
With B3 the Kd was 47.5 nM, the koff was 0.0182 s⁻¹ and the kon was 383000 M⁻¹ s⁻¹.
For B4, the Kd was 35.8 nM, the koff was 0.0247 s⁻¹ and the kon was 692000 M⁻¹ s⁻¹.
B5 was tested, and the Kd was 94.8 nM, the koff was 0.0558 s⁻¹ and the kon was 504000 M⁻¹ s⁻¹.
B6 showed a Kd of 43.3 nM, a koff of 0.021 s⁻¹ and a kon of 487000 M⁻¹ s⁻¹.
With B7 the Kd was 0.0333 nM, the koff was 3.3e-05 s⁻¹ and the kon was 1.01e+06 M⁻¹ s⁻¹.
In the case of B8, the Kd is reported as 6.04 nM, the koff is reported as 0.0011 s⁻¹ and the kon is reported as 183000 M⁻¹ s⁻¹.
In the case of B9, the Kd is reported as 0.984 nM, the koff is reported as 0.00169 s⁻¹ and the kon is reported as 1.04e+06 M⁻¹ s⁻¹.
B10 was tested, and the Kd was 12.8 nM, the koff was 0.0133 s⁻¹ and the kon was 1.03e+06 M⁻¹ s⁻¹.
B11 gave a Kd of 7.29 nM, a koff of 0.00722 s⁻¹ and a kon of 1.01e+06 M⁻¹ s⁻¹.
Binder B12 has a Kd of 44 nM, a koff of 0.0169 s⁻¹ and a kon of 682000 M⁻¹ s⁻¹.
Work on B13 yielded a Kd of 60.8 nM, a koff of 0.0221 s⁻¹ and a kon of 364000 M⁻¹ s⁻¹.
B14 gave a Kd of 30.1 nM, a koff of 0.0126 s⁻¹ and a kon of 420000 M⁻¹ s⁻¹.
B15 gave a Kd of 46.2 nM, a koff of 0.0328 s⁻¹ and a kon of 710000 M⁻¹ s⁻¹.
B16 gave a Kd of 33.3 nM, a koff of 0.0244 s⁻¹ and a kon of 733000 M⁻¹ s⁻¹.
Work on B17 yielded a Kd of 33.3 nM, a koff of 0.019 s⁻¹ and a kon of 571000 M⁻¹ s⁻¹.

Each binder was assayed against T2, mouse TfR ectodomain fused to a mouse IgG1 Fc fragment (mouse, UniProt Q62351 89-763) (assay: SPR, kinetic).
T2 construct: extracellular domain; not shown: mouse IgG1 Fc fragment
T2 sequence (Q62351 89-763): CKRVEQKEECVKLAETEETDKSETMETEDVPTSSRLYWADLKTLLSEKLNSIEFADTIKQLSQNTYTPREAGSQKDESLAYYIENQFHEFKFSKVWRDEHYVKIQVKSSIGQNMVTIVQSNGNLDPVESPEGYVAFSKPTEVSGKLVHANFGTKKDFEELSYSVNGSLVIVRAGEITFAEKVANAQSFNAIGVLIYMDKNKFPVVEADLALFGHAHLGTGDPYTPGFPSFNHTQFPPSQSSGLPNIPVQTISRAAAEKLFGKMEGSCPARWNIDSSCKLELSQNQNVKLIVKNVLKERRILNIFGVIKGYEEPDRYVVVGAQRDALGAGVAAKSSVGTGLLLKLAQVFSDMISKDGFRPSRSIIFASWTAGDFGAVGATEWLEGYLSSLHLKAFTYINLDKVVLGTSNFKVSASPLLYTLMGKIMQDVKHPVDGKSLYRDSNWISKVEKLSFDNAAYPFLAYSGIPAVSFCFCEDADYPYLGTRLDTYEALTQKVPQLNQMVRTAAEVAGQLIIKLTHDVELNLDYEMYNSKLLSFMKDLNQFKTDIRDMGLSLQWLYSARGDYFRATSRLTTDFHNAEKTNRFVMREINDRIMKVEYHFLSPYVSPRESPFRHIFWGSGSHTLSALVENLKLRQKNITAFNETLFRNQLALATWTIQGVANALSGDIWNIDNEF
Experimental: as §1
Binder B1 has a Kd of 301 nM, a koff of 0.075 s⁻¹ and a kon of 251000 M⁻¹ s⁻¹.
With B7 the Kd was 15.6 nM, the koff was 0.00909 s⁻¹ and the kon was 581000 M⁻¹ s⁻¹.
Binder B8 has a Kd of 1960 nM, a koff of 0.0125 s⁻¹ and a kon of 6510 M⁻¹ s⁻¹.

These binders were tested against T3, rhesus monkey TfR ectodomain fused to a mouse IgG1 Fc fragment (rhesus monkey, UniProt I0FKY7 89-760) (assay: SPR, kinetic).
T3 construct: extracellular domain; not shown: mouse IgG1 Fc fragment
Experimental: as §1
With B2 the Kd was 373 nM, the koff was 0.192 s⁻¹ and the kon was 515000 M⁻¹ s⁻¹.
For B3, the Kd was 234 nM, the koff was 0.123 s⁻¹ and the kon was 524000 M⁻¹ s⁻¹.
Work on B4 yielded a Kd of 358 nM, a koff of 0.266 s⁻¹ and a kon of 745000 M⁻¹ s⁻¹.
With B9 the Kd was 12.1 nM, the koff was 0.0119 s⁻¹ and the kon was 997000 M⁻¹ s⁻¹.
Binder B10 has a Kd of 135 nM, a koff of 0.0438 s⁻¹ and a kon of 325000 M⁻¹ s⁻¹.
With B11 the Kd was 53.8 nM, the koff was 0.0206 s⁻¹ and the kon was 455000 M⁻¹ s⁻¹.
B12 gave a Kd of 202 nM, a koff of 0.0942 s⁻¹ and a kon of 1.16e+06 M⁻¹ s⁻¹.
B13 showed a Kd of 32.1 nM, a koff of 0.0509 s⁻¹ and a kon of 1.59e+06 M⁻¹ s⁻¹.
B14 showed a Kd of 32.7 nM, a koff of 0.0418 s⁻¹ and a kon of 1.28e+06 M⁻¹ s⁻¹.
In the case of B15, the Kd is reported as 73.4 nM, the koff is reported as 0.0509 s⁻¹ and the kon is reported as 693000 M⁻¹ s⁻¹.
Work on B16 yielded a Kd of 51.5 nM, a koff of 0.102 s⁻¹ and a kon of 1.97e+06 M⁻¹ s⁻¹.

The binders below were run against T1, human TfR ectodomain fused to a mouse … (assay: SPR, at equilibrium).
Experimental: as §1
B1 was tested, and the Kd was 115 nM.
B2 gave a Kd of 112 nM.
In the case of B3, the Kd is reported as 64.8 nM.
Binder B4 has a Kd of 38.6 nM.
B18 was tested, and the Kd was 1550 nM.
B5 gave a Kd of 84.3 nM.
Work on B6 yielded a Kd of 37.8 nM.
In the case of B10, the Kd is reported as 76.3 nM.
B11 showed a Kd of 3.22 nM.
Work on B12 yielded a Kd of 21.8 nM.
Binder B13 has a Kd of 63.8 nM.
B14 was tested, and the Kd was 36.5 nM.
Work on B15 yielded a Kd of 46.5 nM.
B16 was tested, and the Kd was 32.4 nM.
For B17, the Kd was 39.2 nM.

Each binder was assayed against T3, rhesus monkey TfR ectodomain fused to a … (assay: SPR, at equilibrium).
Experimental: as §1
Binder B2 has a Kd of 339 nM.
For B3, the Kd was 242 nM.
B4 showed a Kd of 265 nM.
Work on B9 yielded a Kd of 25.1 nM.
With B10 the Kd was 222 nM.
In the case of B11, the Kd is reported as 36.8 nM.
Work on B12 yielded a Kd of 100 nM.
B13 showed a Kd of 35.4 nM.
For B14, the Kd was 35.1 nM.
Work on B15 yielded a Kd of 86 nM.
With B16 the Kd was 49.4 nM.
B17 was tested, and the Kd was 206 nM.

The binders below were run against T4, human transferrin receptor (hTfR) fused to EGFP, on CHO cells (human, UniProt P02786 1-760) (assay: apparent Kd, flow cytometry, CHO cells).
T4 construct: whole, on cells; also called human TfR; CHO-hTfR-EGFP; not shown: EGFP from pEGFP-C1 vector, fused to the N-terminal (intracellular) end of hTfR
T4 sequence (P02786 whole entry, the tested form may be a part): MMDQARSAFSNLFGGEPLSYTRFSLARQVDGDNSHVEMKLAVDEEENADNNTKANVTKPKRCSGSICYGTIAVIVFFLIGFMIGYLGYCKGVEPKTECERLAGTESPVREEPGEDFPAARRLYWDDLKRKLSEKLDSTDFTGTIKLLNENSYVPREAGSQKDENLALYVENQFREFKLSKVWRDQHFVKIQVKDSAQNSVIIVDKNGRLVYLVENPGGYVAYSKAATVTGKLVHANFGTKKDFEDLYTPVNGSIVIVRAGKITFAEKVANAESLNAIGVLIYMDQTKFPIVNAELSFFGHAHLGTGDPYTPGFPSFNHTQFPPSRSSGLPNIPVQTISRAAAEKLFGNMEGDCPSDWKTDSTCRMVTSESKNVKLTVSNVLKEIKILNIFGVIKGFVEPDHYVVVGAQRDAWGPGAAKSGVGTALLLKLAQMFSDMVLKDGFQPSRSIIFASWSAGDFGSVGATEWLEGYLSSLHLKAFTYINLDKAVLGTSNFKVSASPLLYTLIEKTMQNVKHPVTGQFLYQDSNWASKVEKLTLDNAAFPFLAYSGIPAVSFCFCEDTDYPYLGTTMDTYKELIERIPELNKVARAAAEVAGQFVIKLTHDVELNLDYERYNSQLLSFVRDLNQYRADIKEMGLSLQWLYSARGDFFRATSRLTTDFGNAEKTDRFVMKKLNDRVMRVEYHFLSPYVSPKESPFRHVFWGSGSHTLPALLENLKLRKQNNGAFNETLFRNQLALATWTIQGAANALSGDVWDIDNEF
Experimental: (§2) The binding properties of VHHs with affinity for the TfR from different species (i.e., human (h), mouse (m) and rhesus monkey (rh)) were tested using flow cytometry, and apparent affinities (Kd app) were determined. All experiments were performed in 96 well plates using 2×10⁵ cells/well, at 4° C. with shaking. CHO cell lines expressing the hTfR, mTfR or rhTfR fused to EGFP were saturated with PBS/BSA 2% solution during 30 min to avoid nonspecific binding, followed by incubation with purified VHHs at increasing concentrations for 1 hr. After one wash in PBS/BSA 2%, cells were incubated for 1 hr with an anti-6His tag antibody (mouse), washed twice with PBS/BSA 2%, and incubated for 1 hr with an Alexa647-conjugated anti-mouse secondary antibody. After two last washes in PBS/BSA 2%, cells were fixed by incubation for 15 min with PBS/PFA 2%, washed once with PBS and finally resuspended in PBS. Fluorescence levels were assessed using an Attune NxT flow cytometer (Thermo Fisher Scientific). Experimental data were fitted with GraphPad Prism® software using a nonlinear fit to determine the apparent Kd constants. […] Table 5 hereafter summarizes apparent Kd obtained for the tested VHHs.
B1 gave a Kd of 23 nM.
Binder B2 has a Kd of 31 nM.
B3 was tested, and the Kd was 11 nM.
B4 gave a Kd of 66 nM.
With B18 the Kd was 777 nM.
In the case of B5, the Kd is reported as 23 nM.
Work on B6 yielded a Kd of 12 nM.
For B7, the Kd was 1.9 nM.
With B8 the Kd was 192 nM.
In the case of B9, the Kd is reported as 4.7 nM.
B10 showed a Kd of 6.2 nM.
For B11, the Kd was 6.8 nM.
Work on B12 yielded a Kd of 9 nM.
Binder B13 has a Kd of 14 nM.
For B14, the Kd was 7.1 nM.
In the case of B15, the Kd is reported as 50 nM.
B16 gave a Kd of 13 nM.
For B17, the Kd was 27 nM.

These binders were tested against T5, mouse transferrin receptor (mTfR) fused to EGFP, on CHO cells (mouse, UniProt Q62351 1-763) (assay: apparent Kd, flow cytometry, CHO cells).
T5 construct: whole, on cells; also called mouse TfR; CHO-mTfR-EGFP; not shown: EGFP
T5 sequence (Q62351 whole entry, the tested form may be a part): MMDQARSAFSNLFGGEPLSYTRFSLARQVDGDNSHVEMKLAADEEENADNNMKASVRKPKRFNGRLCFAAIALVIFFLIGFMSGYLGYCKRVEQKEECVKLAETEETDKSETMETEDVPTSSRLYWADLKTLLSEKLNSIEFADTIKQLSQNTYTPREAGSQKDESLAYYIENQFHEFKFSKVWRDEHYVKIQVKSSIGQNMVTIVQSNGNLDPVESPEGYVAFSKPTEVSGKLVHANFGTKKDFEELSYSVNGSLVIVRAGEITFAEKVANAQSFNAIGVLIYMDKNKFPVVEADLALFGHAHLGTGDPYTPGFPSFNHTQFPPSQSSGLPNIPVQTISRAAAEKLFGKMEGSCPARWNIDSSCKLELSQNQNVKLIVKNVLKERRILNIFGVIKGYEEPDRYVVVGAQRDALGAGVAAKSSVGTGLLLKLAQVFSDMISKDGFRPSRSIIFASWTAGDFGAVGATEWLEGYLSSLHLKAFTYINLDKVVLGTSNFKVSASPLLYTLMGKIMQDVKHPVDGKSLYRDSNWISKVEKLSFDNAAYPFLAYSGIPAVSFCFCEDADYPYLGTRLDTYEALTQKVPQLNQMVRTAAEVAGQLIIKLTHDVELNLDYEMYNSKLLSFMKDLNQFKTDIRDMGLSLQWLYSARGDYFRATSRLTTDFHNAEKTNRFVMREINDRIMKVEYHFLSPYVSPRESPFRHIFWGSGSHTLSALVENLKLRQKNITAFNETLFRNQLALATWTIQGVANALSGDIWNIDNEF
Experimental: as §2
B1 showed a Kd of 622 nM.
Work on B2 yielded a Kd of 696 nM.
Work on B3 yielded a Kd of 445 nM.
Binder B4 has a Kd of 1740 nM.
For B18, the Kd was 755 nM.
B5 gave a Kd of 427 nM.
With B6 the Kd was 416 nM.
For B7, the Kd was 56 nM.
Work on B8 yielded a Kd of 313 nM.
Binder B9 has a Kd of 743 nM.
Work on B10 yielded a Kd of 3.6 nM.
In the case of B11, the Kd is reported as 760 nM.
Binder B12 has a Kd of 1670 nM.
Binder B13 has a Kd of 1690 nM.
B14 was tested, and the Kd was 1210 nM.
For B15, the Kd was 230 nM.
B16 showed a Kd of 1070 nM.
B17 showed a Kd of 891 nM.

Each binder was assayed against T6, rhesus monkey transferrin receptor (rhTfR) fused to EGFP, on CHO cells (rhesus monkey) (assay: apparent Kd, flow cytometry, CHO cells).
T6 construct: whole, on cells; also called rhesus monkey TfR
Experimental: as §2
Work on B1 yielded a Kd of 793 nM.
B2 gave a Kd of 362 nM.
With B3 the Kd was 256 nM.
Work on B4 yielded a Kd of 653 nM.
B5 gave a Kd of 494 nM.
For B6, the Kd was 481 nM.
With B7 the Kd was 1.5 nM.
In the case of B8, the Kd is reported as 138 nM.
Binder B9 has a Kd of 6.9 nM.
In the case of B10, the Kd is reported as 307 nM.
Binder B11 has a Kd of 16 nM.
Binder B12 has a Kd of 72 nM.
Work on B13 yielded a Kd of 20 nM.
B14 showed a Kd of 14 nM.
Work on B15 yielded a Kd of 170 nM.
B16 showed a Kd of 68 nM.
In the case of B17, the Kd is reported as 130 nM.
